Test [1] addresses prohibitin isoform 1 (human (endogenous in SH-SY5Y, U-87 MG, CHME-3)) (UniProt P35232).
Test [2] concerns the target prohibitin-2 isoform 1 (human (endogenous in SH-SY5Y, U-87 MG, CHME-3)) (UniProt Q99623).
Test [3] concerns the target prohibitin isoform 1 (human (endogenous in SH-SY5Y, U-87 MG, CHME-3)) (UniProt P35232). The source holds these as a separate data set.
For test [4], the target named is prohibitin-2 isoform 1 (human (endogenous in SH-SY5Y, U-87 MG, CHME-3)) (UniProt Q99623). This is another data set of the same source.
Test [5] shares this target. This is another data set of the same source.

Results on one substance are retold here after article PMC7168832.

UniProt Q99623, sequence (Q99623 whole entry, canonical isoform): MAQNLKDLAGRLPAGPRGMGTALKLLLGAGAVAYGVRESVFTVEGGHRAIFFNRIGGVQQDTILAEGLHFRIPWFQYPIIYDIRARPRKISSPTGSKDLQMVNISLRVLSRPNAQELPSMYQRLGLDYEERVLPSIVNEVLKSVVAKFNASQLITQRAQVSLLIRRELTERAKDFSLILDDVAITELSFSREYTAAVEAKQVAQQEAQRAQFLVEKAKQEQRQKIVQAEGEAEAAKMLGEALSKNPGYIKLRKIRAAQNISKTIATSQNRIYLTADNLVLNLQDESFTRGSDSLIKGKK
UniProt P35232, sequence (P35232 whole entry, canonical isoform): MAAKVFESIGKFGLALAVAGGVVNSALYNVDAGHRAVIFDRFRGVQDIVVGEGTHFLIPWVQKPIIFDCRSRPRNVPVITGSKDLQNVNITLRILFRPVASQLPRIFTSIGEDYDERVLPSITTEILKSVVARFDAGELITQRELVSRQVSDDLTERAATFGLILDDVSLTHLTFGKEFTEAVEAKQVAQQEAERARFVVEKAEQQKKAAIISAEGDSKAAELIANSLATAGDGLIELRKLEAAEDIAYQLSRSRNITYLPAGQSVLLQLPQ

Take “DENV-3 (16562), purified virus (complex)”: in test [1], the reduction in DENV-3 plaques, CHME-3 cells pre-incubated with PHB1 antibody is 73.3% and the reduction in DENV-3 plaques, SH-SY5Y cells pre-incubated with anti-PHB1 antibody was 55%. Further, in test [2], the reduction in DENV-3 plaques, CHME-3 cells pre-incubated with PHB2 antibody was 82.2% and the reduction in DENV-3 plaques, SH-SY5Y cells pre-incubated with anti-PHB2 antibody worked out at 75%. Also, the % fluorescent (DENV-3 antigen) positive SH-SY5Y cells by IFA 30 h PI, cells pre-incubated with anti-PHB1 antibody, 1 to 2 μg (17 to 10%; virus control 40%, anti-actin control 35%) in test [3] was 17%. In addition, in test [4], the % fluorescent (DENV-3 antigen) positive SH-SY5Y cells by IFA 30 h PI, cells pre-incubated with anti-PHB2 antibody, 1 to 2 μg (11 to 6%; virus control 40%, anti-actin control 35%) was determined as 11%. For the same substance, in test [5], the entry assay: reduction in virus titre, CHME-3 cells with bound DENV-3 (MOI 100) treated with PHB2 polyclonal antibody at 37 °C for 1.5 h is 82%.
